We go through 10 substances from patent publication US20250283871A1, “COMPOSITIONS AND METHODS FOR MODULATING THE INTERACTION BETWEEN SS18-SSX FUSION ONCOPROTEIN AND NUCLEOSOMES” (Dana-Farber Cancer Institute, Inc., priority 2020, published 2025).

Broadly, the pEC50 is −log10 of the EC50, conventionally taken in molar units.

Assay [1] has as its target cellular chromatin (endogenous nucleosomes; core histones H2A, H2B, H3, H4) (human) (UniProt P0C0S8). The assay is described as follows: cell-based or functional assay.
The target of assay [2] is recombinant H2A K119Ub mononucleosomes (UniProt P04908). Put plainly: AlphaLISA; 95% CI 2.3-9.1.
The target in assay [3] is recombinant, unmodified mononucleosomes (UniProt P04908). The assay is described as follows: AlphaLISA; 95% CI 9.1-53.3. Background: Bead proximity is the source of the signal in Alpha formats.
Assay [4] addresses recombinant H2A K119Ub mononucleosomes (UniProt P04908). The assay is described as follows: AlphaLISA; 95% CI 7.2-48.5.
Assay [5] concerns the target KCNMA1 (tr|A0A1W2PP06|A0A1W2PP06_HUMAN) (human) (UniProt Q12791). Put plainly: HA affinity purification from HEK-293T nuclear extract, mass spectrometry peptide counts.
Assay [6] concerns the target LPGAT1 (sp|Q92604|LGAT1_HUMAN) (human) (UniProt Q92604). Described as above.
The target in assay [7] is LZIC (sp|Q8WZA0|LZIC_HUMAN) (human) (UniProt Q8WZA0). Described as above.
The target of assay [8] is mammalian mononucleosome (HEK293T) carrying histone H3 K79me1 (human (HEK-293T cells)) (UniProt P68431). Put plainly: MBP-SSX1 78aa pull-down of pooled HEK293T mononucleosomes, targeted quantitative histone MS; input c3-c5: 0.268, 0.441, 0.301.
Assay [9] addresses mammalian mononucleosome (HEK293T) carrying histone H3 K79me2 (human (HEK-293T cells)) (UniProt P68431). Put plainly: MBP-SSX1 78aa pull-down of pooled HEK293T mononucleosomes, targeted quantitative histone MS; input c3-c5: 0.498, 0.469, 0.455.
For assay [10], the target named is mammalian mononucleosomes (HEK293T) carrying H3K9me1S10ph1K14ac1 (mammalian (HEK293T)) (UniProt P68431). Put plainly: MBP-SSX1 78aa pull-down, targeted histone MS.
The target of assay [11] is mammalian mononucleosomes (HEK293T) carrying H2A(12to17)K15ac1 (mammalian (HEK293T)) (UniProt P0C0S8). Put plainly: MBP-SSX1 78aa pull-down, targeted histone MS.
In assay [12] the target is mammalian mononucleosomes (HEK293T) carrying H2B(1to29)K5ac1 (mammalian (HEK293T)) (UniProt P62807). Put plainly: MBP-SSX1 78aa pull-down, targeted histone MS.
Assay [13] deals with mammalian mononucleosomes (HEK293T) carrying H4(4to17)K5ac1K8ac1me0 (mammalian (HEK293T)) (UniProt P62805). The assay is described as follows: MBP-SSX1 78aa pull-down, targeted histone MS.
The target in assay [14] is mammalian mononucleosomes (HEK293T) carrying H3K4me1 (mammalian (HEK293T)) (UniProt P68431). Put plainly: MBP-SSX1 78aa pull-down, targeted histone MS.
Assay [15] addresses mammalian mononucleosomes (HEK293T) carrying H3K9me3S10ph1K14ac0 (mammalian (HEK293T)) (UniProt P68431). The assay is described as follows: MBP-SSX1 78aa pull-down, targeted histone MS.
In assay [16] the target is mammalian mononucleosomes (HEK293T) carrying H4(4to17)K12ac1me0 (mammalian (HEK293T)) (UniProt P62805). Put plainly: MBP-SSX1 78aa pull-down, targeted histone MS.
Assay [17] concerns the target mammalian mononucleosomes (HEK293T) carrying H4(4to17)K5ac1K16ac1me0 (mammalian (HEK293T)) (UniProt P62805). Put plainly: MBP-SSX1 78aa pull-down, targeted histone MS.
The target in assay [18] is mammalian mononucleosomes (HEK293T) carrying H4(4to17)K12ac1K16ac1me0 (mammalian (HEK293T)) (UniProt P62805). Put plainly: MBP-SSX1 78aa pull-down, targeted histone MS.
Assay [19] has as its target mammalian mononucleosomes (HEK293T) carrying H3K4me2 (mammalian (HEK293T)) (UniProt P68431). The assay is described as follows: MBP-SSX1 78aa pull-down, targeted histone MS.
The target of assay [20] is mammalian mononucleosomes (HEK293T) carrying H2A(12to17)K13ac1 (mammalian (HEK293T)) (UniProt P0C0S8). The assay is described as follows: MBP-SSX1 78aa pull-down, targeted histone MS.
Assay [21] has as its target mammalian mononucleosomes (HEK293T) carrying H4(4to17)ac0me0 (mammalian (HEK293T)) (UniProt P62805). The assay is described as follows: MBP-SSX1 78aa pull-down, targeted histone MS.
The target of assay [22] is mammalian mononucleosomes (HEK293T) carrying H2A(4to11)K9ac1 (mammalian (HEK293T)) (UniProt P0C0S8). The assay is described as follows: MBP-SSX1 78aa pull-down, targeted histone MS.
For assay [23], the target named is mammalian mononucleosomes (HEK293T) carrying H2A(4to11)K5ac1 (mammalian (HEK293T)) (UniProt P0C0S8). The assay is described as follows: MBP-SSX1 78aa pull-down, targeted histone MS.
Assay [24] addresses mammalian mononucleosomes (HEK293T) carrying H3K4ac1 (mammalian (HEK293T)) (UniProt P68431). Put plainly: MBP-SSX1 78aa pull-down, targeted histone MS.
Assay [25] addresses mammalian mononucleosomes (HEK293T) carrying H3K4me3 (mammalian (HEK293T)) (UniProt P68431). Put plainly: MBP-SSX1 78aa pull-down, targeted histone MS.
Assay [26] has as its target mammalian mononucleosomes (HEK293T) carrying H4(4to17)K16ac1me0 (mammalian (HEK293T)) (UniProt P62805). Put plainly: MBP-SSX1 78aa pull-down, targeted histone MS.
The target of assay [27] is mammalian mononucleosomes (HEK293T) carrying H2A(12to17)ac0 (mammalian (HEK293T)) (UniProt P0C0S8). The assay is described as follows: MBP-SSX1 78aa pull-down, targeted histone MS.
Assay [28] has as its target mammalian mononucleosomes (HEK293T) carrying H2A(4to11)ac0 (mammalian (HEK293T)) (UniProt P0C0S8). Put plainly: MBP-SSX1 78aa pull-down, targeted histone MS.
In assay [29] the target is mammalian mononucleosomes (HEK293T) carrying H4(20to23)K20me2 (mammalian (HEK293T)) (UniProt P62805). The assay is described as follows: MBP-SSX1 78aa pull-down, targeted histone MS.
In assay [30] the target is mammalian mononucleosomes (HEK293T) carrying H2AZ(1to19)K4ac1 (mammalian (HEK293T)) (UniProt P0C0S5). Put plainly: MBP-SSX1 78aa pull-down, targeted histone MS.
Assay [31] concerns the target mammalian mononucleosomes (HEK293T) carrying H4(4to17)K8ac1K12ac1me0 (mammalian (HEK293T)) (UniProt P62805). The assay is described as follows: MBP-SSX1 78aa pull-down, targeted histone MS.
Assay [32] has as its target mammalian mononucleosomes (HEK293T) carrying H4(20to23)K20me1 (mammalian (HEK293T)) (UniProt P62805). The assay is described as follows: MBP-SSX1 78aa pull-down, targeted histone MS.
Assay [33] concerns the target mammalian mononucleosomes (HEK293T) carrying H2A(4to11)K5ac1K9ac1 (mammalian (HEK293T)) (UniProt P0C0S8). The assay is described as follows: MBP-SSX1 78aa pull-down, targeted histone MS.
Assay [34] deals with mammalian mononucleosomes (HEK293T) carrying H4(20to23)K20me3 (mammalian (HEK293T)) (UniProt P62805). Put plainly: MBP-SSX1 78aa pull-down, targeted histone MS.
For assay [35], the target named is mammalian mononucleosomes (HEK293T) carrying H3K9me2S10ph1K14ac1 (mammalian (HEK293T)) (UniProt P68431). Put plainly: MBP-SSX1 78aa pull-down, targeted histone MS.
Assay [36] addresses mammalian mononucleosomes (HEK293T) carrying H4(4to17)K5ac1K8ac1K16ac1me0 (mammalian (HEK293T)) (UniProt P62805). The assay is described as follows: MBP-SSX1 78aa pull-down, targeted histone MS.
Assay [37] addresses mammalian mononucleosomes (HEK293T) carrying H4(4to17)K5ac1me0 (mammalian (HEK293T)) (UniProt P62805). The assay is described as follows: MBP-SSX1 78aa pull-down, targeted histone MS.
Assay [38] concerns the target mammalian mononucleosomes (HEK293T) carrying H4(20to23)K20me0 (mammalian (HEK293T)) (UniProt P62805). Put plainly: MBP-SSX1 78aa pull-down, targeted histone MS.
The target in assay [39] is mammalian mononucleosomes (HEK293T) carrying H4(4to17)K8ac1K12ac1K16ac1me0 (mammalian (HEK293T)) (UniProt P62805). The assay is described as follows: MBP-SSX1 78aa pull-down, targeted histone MS.
In assay [40] the target is mammalian mononucleosomes (HEK293T) carrying H4(4to17)K5ac1K8ac1K12ac1me0 (mammalian (HEK293T)) (UniProt P62805). The assay is described as follows: MBP-SSX1 78aa pull-down, targeted histone MS.
The target in assay [41] is mammalian mononucleosomes (HEK293T) carrying H4(4to17)K5ac1K8ac1K12ac1K16ac1me0 (mammalian (HEK293T)) (UniProt P62805). Put plainly: MBP-SSX1 78aa pull-down, targeted histone MS.
The target in assay [42] is mammalian mononucleosomes (HEK293T) carrying H2AZ(1to19)ac0 (mammalian (HEK293T)) (UniProt P0C0S5). Put plainly: MBP-SSX1 78aa pull-down, targeted histone MS.
Assay [43] addresses mammalian mononucleosomes (HEK293T) carrying H3K9me2S10ph1K14ac0 (mammalian (HEK293T)) (UniProt P68431). Put plainly: MBP-SSX1 78aa pull-down, targeted histone MS.
Assay [44] concerns the target TSP1_HUMAN Thrombospondin-1 (human) (UniProt P07996). Put plainly: anti-SMARCA4 (BRG1) IP, mass spectrometry, human fibroblasts.
Assay [45] has as its target cellular chromatin (endogenous nucleosomes; core histones H2A, H2B, H3, H4) (human) (UniProt P0C0S8). Put plainly: differential salt extraction, immunoblot.

pEC50: −log10 of the molar value. “And” between values parts separate entries of the source, which are not always exact repeats. Equal values may be shown once.

As to GFP-SS18 WT (from UniProt Q15532 2-418), the FRAP recovery half-time in assay [1] worked out at 10.1 s.
In turn, GFP-SS18-SSX1 showed an FRAP recovery half-time in assay [1] of 33.9 s.
Consider “GST-SSX1 (78aa) (from UniProt Q16384 111-188)”, for which the pEC50 is 8.34 in [2] and 7.66 in assay [3].
On to “GST-SSXdel7aa (acidic C-term DPEEDDE-->AAAAAAA) (from UniProt Q16384 111-181)”, for which the pEC50 in [4] is 7.73.
In the case of HA-SS18 WT (from UniProt Q15532 1-387), the Total peptides in assay [5], in [6] and in assay [7] was 1 peptides throughout. In addition, the Unique peptides in [5], in [6] and in assay [7] was 1 peptides in each case.
Take “MBP-SSX1 78aa (from UniProt Q16384 111-188)”: the log2norm (Light/Heavy) intensity ratio normalized to histone norm peptide is 0.954 log2 and 0.54 log2 in [8]; 0.826 log2 and 0.557 log2 in [9].
With “MBP-SSX1 78aa protein (from UniProt Q16384 111-188)”, the log2norm (Light/Heavy) intensity ratio was -2.67 log2 and -2.51 log2 in assay [10]; 0.042 log2 and -0.086 log2 in assay [11]; 0.273 log2 and 0.323 log2 in assay [12]; 0.107 log2 and 0.094 log2 in [13]; 0.74 log2 and 0.353 log2 in [14]; -0.566 log2 and -1.03 log2 in assay [15]. Further, the log2norm (Light/Heavy) intensity ratio in assay [16] was -0.207 log2 and -0.275 log2; in [17], 0.226 log2 and 0.367 log2; in assay [18], 0.204 log2 and 0.304 log2; in assay [19], 0.778 log2 and 0.532 log2; in assay [20], 0.032 log2 and -0.047 log2; in [21], -0.613 log2 and -0.573 log2. In addition, the log2norm (Light/Heavy) intensity ratio in assay [22] is -0.254 log2 and -0.375 log2; in assay [23] it was 0.569 log2 and 0.624 log2; in assay [24], 0.263 log2 and 0.32 log2; in assay [25], 0.766 log2 and 0.505 log2; in [26], -0.391 log2 and -0.337 log2; in assay [27], 0.201 log2 and -0.12 log2. The log2norm (Light/Heavy) intensity ratio in assay [28] was -0.026 log2 and 0.061 log2; in assay [29], -0.414 log2 and -0.391 log2; in assay [30], -0.217 log2 and 0.048 log2; in [31], -0.198 log2 and -0.093 log2; in [32], -0.427 log2 and -0.443 log2; in assay [33] it was -0.031 log2 and -0.049 log2. For the same substance, the log2norm (Light/Heavy) intensity ratio is -0.109 log2 and 0.055 log2 in assay [34]; -0.87 log2 and -1.01 log2 in [35]; 0.474 log2 and 0.311 log2 in [36]; -0.053 log2 and 0.075 log2 in [37]; 0.017 log2 and 0.092 log2 in [38]; 0.677 log2 and 0.625 log2 in [39]. Besides, the log2norm (Light/Heavy) intensity ratio in [40] was -0.223 log2 and -0.27 log2; in assay [41] it was 0.276 log2 and 0.245 log2; in [42] it was -0.784 log2 and -0.697 log2; in [43] it was -0.683 log2 and -1.09 log2.
Regarding “SMCA4_HUMAN Transcription activator BRG1 (from UniProt P51532 1-1647)”, in [44], the NSAF turned out to be 0.000217.
Regarding “SS18-SSX-bound BAF complexes (HA-SS18-SSX1 purification)”, the NaCl concentration of elution from chromatin in assay [45] is above 1 M.
The same measure, in the same setting: the result for “wild-type SS18-bound BAF complexes (HA-SS18 WT purification) (from UniProt Q15532 1-387)” reads 0.3 to 0.5 M.
